Test results as given in patent US20180155451A1 (published 2018).

T1: FcγRIIa R (human, UniProt P12318 34-217)
T1 construct: extracellular domain; also called FcgRIIa R type; 2aR
T1 sequence (looked up): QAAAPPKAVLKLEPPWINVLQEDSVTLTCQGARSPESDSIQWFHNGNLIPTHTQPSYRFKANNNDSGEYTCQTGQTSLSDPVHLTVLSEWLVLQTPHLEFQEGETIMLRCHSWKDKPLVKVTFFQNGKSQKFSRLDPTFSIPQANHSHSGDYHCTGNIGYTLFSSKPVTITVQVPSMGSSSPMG

B1: GpH7-B3 variant N325_06M/GpL16-k0 (antibody, human IgG1, kappa)
heavy: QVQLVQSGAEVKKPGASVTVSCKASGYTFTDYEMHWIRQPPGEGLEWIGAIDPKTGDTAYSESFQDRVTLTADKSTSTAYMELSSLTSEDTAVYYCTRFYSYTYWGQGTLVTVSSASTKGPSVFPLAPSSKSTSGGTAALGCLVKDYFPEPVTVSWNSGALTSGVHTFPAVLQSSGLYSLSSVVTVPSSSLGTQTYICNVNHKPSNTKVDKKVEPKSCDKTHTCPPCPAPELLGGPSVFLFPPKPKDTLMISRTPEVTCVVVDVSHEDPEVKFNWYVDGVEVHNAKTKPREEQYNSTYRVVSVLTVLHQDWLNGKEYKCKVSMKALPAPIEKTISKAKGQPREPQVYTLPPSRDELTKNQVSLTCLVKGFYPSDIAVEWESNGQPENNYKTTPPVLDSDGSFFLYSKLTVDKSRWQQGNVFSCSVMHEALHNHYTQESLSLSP
light: DIVMTQSPLSLPVTPGEPASISCQASESLVHSNRNTYLHWYLQKPGQSPQLLIYKVSNRFSGVPDRFSGSGSGTDFTLKISRVEAEDVGVYYCSQNTHVPPTFGQGTKVEIERTVAAPSVFIFPPSDEQLKSGTASVVCLLNNFYPREAKVQWKVDNALQSGNSQESVTEQDSKDSTYSLSSTLTLSKADYEKHKVYACEVTHQGLSSPVTKSFNRGEC
notes: also called Ho Ab N325_06M
B2: GpH7-B3 variant E333_09D/GpL16-k0 (antibody, human IgG1, kappa)
heavy: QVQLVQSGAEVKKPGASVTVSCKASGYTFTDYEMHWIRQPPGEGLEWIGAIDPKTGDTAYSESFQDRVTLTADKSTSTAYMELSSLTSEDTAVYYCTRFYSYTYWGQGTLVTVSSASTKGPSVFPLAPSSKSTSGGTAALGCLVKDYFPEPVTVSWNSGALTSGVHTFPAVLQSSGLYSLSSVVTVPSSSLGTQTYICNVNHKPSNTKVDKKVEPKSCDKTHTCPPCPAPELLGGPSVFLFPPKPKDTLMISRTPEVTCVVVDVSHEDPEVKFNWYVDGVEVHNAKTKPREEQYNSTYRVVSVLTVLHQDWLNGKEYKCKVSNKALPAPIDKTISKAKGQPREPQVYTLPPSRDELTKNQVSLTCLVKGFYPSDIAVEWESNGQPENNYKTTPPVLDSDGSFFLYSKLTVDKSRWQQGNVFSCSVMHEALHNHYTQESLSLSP
light: B1 light
notes: also called Ho Ab E333_09D
B3: GpH7-B3 variant A330_19Q/GpL16-k0 (antibody, human IgG1, kappa)
heavy: not shown
light: B1 light
notes: also called Ho Ab A330_19Q
B4: GpH7-B3 variant A327_10E/GpL16-k0 (antibody, human IgG1, kappa)
heavy: not shown
light: B1 light
notes: also called Ho Ab A327_10E
B5: GpH7-B3 variant A330_12R/GpL16-k0 (antibody, human IgG1, kappa)
heavy: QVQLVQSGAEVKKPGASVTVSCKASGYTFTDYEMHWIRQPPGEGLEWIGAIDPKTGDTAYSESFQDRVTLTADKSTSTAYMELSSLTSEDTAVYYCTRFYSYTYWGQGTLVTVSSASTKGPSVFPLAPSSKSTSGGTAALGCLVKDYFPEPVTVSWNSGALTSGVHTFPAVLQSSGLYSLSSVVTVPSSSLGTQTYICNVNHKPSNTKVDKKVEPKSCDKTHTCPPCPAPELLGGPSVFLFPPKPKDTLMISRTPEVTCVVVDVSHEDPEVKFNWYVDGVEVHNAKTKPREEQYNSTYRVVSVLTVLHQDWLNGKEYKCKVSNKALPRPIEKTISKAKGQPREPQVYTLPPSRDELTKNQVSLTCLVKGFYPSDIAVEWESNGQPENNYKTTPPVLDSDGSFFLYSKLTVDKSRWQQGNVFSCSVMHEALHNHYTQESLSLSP
light: B1 light
notes: also called Ho Ab A330_12R
B6: GpH7-B3 variant A330_05P/GpL16-k0 (antibody, human IgG1, kappa)
heavy: not shown
light: B1 light
notes: also called Ho Ab A330_05P
B7: GpH7-B3 variant G237_13S/GpL16-k0 (antibody, human IgG1, kappa)
heavy: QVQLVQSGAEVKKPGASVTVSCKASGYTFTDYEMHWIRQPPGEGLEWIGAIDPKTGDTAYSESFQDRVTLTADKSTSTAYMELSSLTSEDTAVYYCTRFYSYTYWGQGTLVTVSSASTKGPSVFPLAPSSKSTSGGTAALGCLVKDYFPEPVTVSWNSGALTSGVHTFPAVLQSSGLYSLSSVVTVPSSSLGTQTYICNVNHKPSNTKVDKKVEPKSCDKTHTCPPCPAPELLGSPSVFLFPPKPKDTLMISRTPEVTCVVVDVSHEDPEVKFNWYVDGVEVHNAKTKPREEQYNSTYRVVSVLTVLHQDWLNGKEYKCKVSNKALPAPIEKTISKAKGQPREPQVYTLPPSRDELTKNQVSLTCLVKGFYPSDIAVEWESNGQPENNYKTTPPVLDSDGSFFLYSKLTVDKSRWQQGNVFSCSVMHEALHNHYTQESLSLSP
light: B1 light
notes: also called Ho Ab G237_13S
B8: GpH7-B3 variant G237_02A/GpL16-k0 (antibody, human IgG1, kappa)
heavy: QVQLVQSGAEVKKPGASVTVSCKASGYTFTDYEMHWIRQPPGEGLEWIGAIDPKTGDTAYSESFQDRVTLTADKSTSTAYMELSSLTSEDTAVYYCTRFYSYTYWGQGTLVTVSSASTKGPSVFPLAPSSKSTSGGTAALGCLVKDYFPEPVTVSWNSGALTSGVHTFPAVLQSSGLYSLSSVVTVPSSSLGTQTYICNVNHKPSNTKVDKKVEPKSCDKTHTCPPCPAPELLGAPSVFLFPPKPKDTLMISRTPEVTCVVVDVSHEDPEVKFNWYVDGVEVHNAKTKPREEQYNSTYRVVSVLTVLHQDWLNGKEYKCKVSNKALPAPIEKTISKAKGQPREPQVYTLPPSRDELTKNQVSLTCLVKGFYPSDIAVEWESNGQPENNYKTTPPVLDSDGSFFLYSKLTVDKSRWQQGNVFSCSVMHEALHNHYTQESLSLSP
light: B1 light
notes: also called Ho Ab G237_02A
B9: GpH7-B3 variant A330_01G/GpL16-k0 (antibody, human IgG1, kappa)
heavy: not shown
light: B1 light
notes: also called Ho Ab A330_01G
B10: GpH7-B3 variant E333_15Y/GpL16-k0 (antibody, human IgG1, kappa)
heavy: not shown
light: B1 light
notes: also called Ho Ab E333_15Y
B11: GpH7-B3 variant E333_08L/GpL16-k0 (antibody, human IgG1, kappa)
heavy: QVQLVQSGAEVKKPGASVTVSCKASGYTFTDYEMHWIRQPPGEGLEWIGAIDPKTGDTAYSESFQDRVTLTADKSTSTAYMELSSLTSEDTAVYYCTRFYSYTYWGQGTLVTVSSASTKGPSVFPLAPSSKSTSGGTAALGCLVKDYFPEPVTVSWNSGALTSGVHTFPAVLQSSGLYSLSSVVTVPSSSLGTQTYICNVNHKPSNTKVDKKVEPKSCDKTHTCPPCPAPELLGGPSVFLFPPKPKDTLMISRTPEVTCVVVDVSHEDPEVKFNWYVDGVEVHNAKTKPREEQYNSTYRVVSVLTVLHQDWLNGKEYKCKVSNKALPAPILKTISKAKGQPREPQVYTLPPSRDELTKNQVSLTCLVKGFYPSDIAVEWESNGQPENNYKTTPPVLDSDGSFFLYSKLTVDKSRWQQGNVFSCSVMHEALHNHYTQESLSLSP
light: B1 light
notes: also called Ho Ab E333_08L
B12: GpH7-B3 variant A330_11K/GpL16-k0 (antibody, human IgG1, kappa)
heavy: not shown
light: B1 light
notes: also called Ho Ab A330_11K
B13: GpH7-B3 variant E333_05P/GpL16-k0 (antibody, human IgG1, kappa)
heavy: not shown
light: B1 light
notes: also called Ho Ab E333_05P
B14: GpH7-B3 variant G237_06M/GpL16-k0 (antibody, human IgG1, kappa)
heavy: not shown
light: B1 light
notes: also called Ho Ab G237_06M
B15: GpH7-B3 variant G237_04F/GpL16-k0 (antibody, human IgG1, kappa)
heavy: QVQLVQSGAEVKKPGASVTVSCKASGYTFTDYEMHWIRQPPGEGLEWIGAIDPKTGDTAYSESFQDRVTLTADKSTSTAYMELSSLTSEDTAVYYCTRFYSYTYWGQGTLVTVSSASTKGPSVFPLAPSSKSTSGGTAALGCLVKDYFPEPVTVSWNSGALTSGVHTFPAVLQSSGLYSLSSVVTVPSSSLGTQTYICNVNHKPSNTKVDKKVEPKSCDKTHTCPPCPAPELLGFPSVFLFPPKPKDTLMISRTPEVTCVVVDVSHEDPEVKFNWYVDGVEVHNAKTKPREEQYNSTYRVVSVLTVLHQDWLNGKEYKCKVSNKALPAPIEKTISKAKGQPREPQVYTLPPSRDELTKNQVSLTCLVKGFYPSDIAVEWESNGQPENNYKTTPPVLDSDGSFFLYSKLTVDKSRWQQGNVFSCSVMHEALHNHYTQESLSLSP
light: B1 light
notes: also called Ho Ab G237_04F
B16: GpH7-B3 variant E333_07I/GpL16-k0 (antibody, human IgG1, kappa)
heavy: not shown
light: B1 light
notes: also called Ho Ab E333_07I
B17: GpH7-B3 variant A330_15Y/GpL16-k0 (antibody, human IgG1, kappa)
heavy: not shown
light: B1 light
notes: also called Ho Ab A330_15Y
B18: GpH7-B3 variant G237_18N/GpL16-k0 (antibody, human IgG1, kappa)
heavy: not shown
light: B1 light
notes: also called Ho Ab G237_18N
B19: GpH7-B3 variant E333_04F/GpL16-k0 (antibody, human IgG1, kappa)
heavy: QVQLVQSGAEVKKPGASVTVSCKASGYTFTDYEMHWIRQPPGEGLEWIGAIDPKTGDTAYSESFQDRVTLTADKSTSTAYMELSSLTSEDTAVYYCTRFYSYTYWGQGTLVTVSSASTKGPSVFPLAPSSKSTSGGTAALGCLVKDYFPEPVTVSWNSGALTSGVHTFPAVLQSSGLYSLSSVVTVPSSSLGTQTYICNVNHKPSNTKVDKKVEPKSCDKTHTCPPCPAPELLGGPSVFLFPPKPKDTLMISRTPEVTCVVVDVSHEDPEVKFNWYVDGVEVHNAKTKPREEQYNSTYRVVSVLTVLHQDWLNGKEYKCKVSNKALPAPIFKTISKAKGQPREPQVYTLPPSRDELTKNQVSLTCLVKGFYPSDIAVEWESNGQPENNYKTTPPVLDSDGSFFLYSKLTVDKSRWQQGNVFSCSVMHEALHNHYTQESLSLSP
light: B1 light
notes: also called Ho Ab E333_04F
B20: GpH7-B3 variant E269_09D/GpL16-k0 (antibody, human IgG1, kappa)
heavy: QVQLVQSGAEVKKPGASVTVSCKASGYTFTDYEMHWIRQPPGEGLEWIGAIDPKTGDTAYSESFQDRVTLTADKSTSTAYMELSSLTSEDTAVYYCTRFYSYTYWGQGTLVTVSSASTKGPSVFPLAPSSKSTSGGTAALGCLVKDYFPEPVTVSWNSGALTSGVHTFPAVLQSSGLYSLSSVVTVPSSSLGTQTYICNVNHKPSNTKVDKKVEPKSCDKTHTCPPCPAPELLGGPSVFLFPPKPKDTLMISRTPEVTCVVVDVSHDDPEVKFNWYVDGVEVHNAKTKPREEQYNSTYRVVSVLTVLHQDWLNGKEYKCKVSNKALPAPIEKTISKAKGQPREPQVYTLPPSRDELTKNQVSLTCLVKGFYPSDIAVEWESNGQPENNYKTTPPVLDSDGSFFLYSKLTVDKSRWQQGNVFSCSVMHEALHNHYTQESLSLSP
light: B1 light
notes: also called Ho Ab E269_09D
B21: GpH7-B3 variant G237_08L/GpL16-k0 (antibody, human IgG1, kappa)
heavy: not shown
light: B1 light
notes: also called Ho Ab G237_08L
B22: GpH7-B3 variant A327_09D/GpL16-k0 (antibody, human IgG1, kappa)
heavy: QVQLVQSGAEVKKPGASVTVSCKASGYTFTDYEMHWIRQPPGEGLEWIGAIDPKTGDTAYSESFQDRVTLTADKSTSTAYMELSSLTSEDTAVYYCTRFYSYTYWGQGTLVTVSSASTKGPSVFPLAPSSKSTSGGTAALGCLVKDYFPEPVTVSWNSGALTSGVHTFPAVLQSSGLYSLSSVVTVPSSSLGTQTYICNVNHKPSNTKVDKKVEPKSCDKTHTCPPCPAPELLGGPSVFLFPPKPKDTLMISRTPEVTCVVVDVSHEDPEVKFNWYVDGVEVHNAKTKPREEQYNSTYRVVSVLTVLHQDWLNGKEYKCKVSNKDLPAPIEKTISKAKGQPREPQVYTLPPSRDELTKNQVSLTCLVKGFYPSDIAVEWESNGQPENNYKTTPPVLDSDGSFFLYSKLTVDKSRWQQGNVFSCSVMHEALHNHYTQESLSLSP
light: B1 light
notes: also called Ho Ab A327_09D
B23: GpH7-B3 variant G237_09D/GpL16-k0 (antibody, human IgG1, kappa)
heavy: not shown
light: B1 light
notes: also called Ho Ab G237_09D
B24: GpH7-B3 variant G236_14T/GpL16-k0 (antibody, human IgG1, kappa)
heavy: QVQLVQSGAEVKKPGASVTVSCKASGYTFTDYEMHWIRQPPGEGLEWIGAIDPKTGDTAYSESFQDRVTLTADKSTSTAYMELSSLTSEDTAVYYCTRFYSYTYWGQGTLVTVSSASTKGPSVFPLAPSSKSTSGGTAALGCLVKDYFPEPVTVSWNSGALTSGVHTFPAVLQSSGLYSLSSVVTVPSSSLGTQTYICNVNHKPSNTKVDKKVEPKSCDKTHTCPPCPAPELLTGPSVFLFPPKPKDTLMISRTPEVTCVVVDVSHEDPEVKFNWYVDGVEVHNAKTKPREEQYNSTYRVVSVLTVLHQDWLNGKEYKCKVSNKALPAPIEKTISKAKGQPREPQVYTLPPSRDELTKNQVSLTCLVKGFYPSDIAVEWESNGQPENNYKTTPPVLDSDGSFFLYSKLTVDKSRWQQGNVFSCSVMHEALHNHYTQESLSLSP
light: B1 light
notes: also called Ho Ab G236_14T
B25: GpH7-B3 variant G237_10E/GpL16-k0 (antibody, human IgG1, kappa)
heavy: not shown
light: B1 light
notes: also called Ho Ab G237_10E
B26: GpH7-A5/GpH7-B3 variant P238_06M/GpL16-k0 (antibody, human IgG1, kappa)
heavy 1: not shown
heavy 2: not shown
light: B1 light
notes: also called He Ab P238_06M
B27: GpH7-A5/GpH7-B3 variant L328_10E/GpL16-k0 (antibody, human IgG1, kappa)
heavy 1: not shown
heavy 2: not shown
light: B1 light
notes: also called He Ab L328_10E
B28: GpH7-A5/GpH7-B3 variant S239_08L/GpL16-k0 (antibody, human IgG1, kappa)
heavy 1: not shown
heavy 2: not shown
light: B1 light
notes: also called He Ab S239_08L
B29: GpH7-A5/GpH7-B3 variant N325_10E/GpL16-k0 (antibody, human IgG1, kappa)
heavy 1: not shown
heavy 2: not shown
light: B1 light
notes: also called He Ab N325_10E
B30: GpH7-A5/GpH7-B3 variant L328_09D/GpL16-k0 (antibody, human IgG1, kappa)
heavy 1: not shown
heavy 2: not shown
light: B1 light
notes: also called He Ab L328_09D
B31: GpH7-A5/GpH7-B3 variant N325_13S/GpL16-k0 (antibody, human IgG1, kappa)
heavy 1: not shown
heavy 2: not shown
light: B1 light
notes: also called He Ab N325_13S
B32: GpH7-A5/GpH7-B3 variant P331_20W/GpL16-k0 (antibody, human IgG1, kappa)
heavy 1: not shown
heavy 2: not shown
light: B1 light
notes: also called He Ab P331_20W
B33: GpH7-A5/GpH7-B3 variant P331_04F/GpL16-k0 (antibody, human IgG1, kappa)
heavy 1: not shown
heavy 2: not shown
light: B1 light
notes: also called He Ab P331_04F
B34: GpH7-A5/GpH7-B3 variant P331_16H/GpL16-k0 (antibody, human IgG1, kappa)
heavy 1: not shown
heavy 2: not shown
light: B1 light
notes: also called He Ab P331_16H
B35: GpH7-A5/GpH7-B3 variant N325_09D/GpL16-k0 (antibody, human IgG1, kappa)
heavy 1: not shown
heavy 2: not shown
light: B1 light
notes: also called He Ab N325_09D
B36: GpH7-A5/GpH7-B3 variant N325_01G/GpL16-k0 (antibody, human IgG1, kappa)
heavy 1: not shown
heavy 2: not shown
light: B1 light
notes: also called He Ab N325_01G
B37: GpH7-A5/GpH7-B3 variant L328_13S/GpL16-k0 (antibody, human IgG1, kappa)
heavy 1: not shown
heavy 2: not shown
light: B1 light
notes: also called He Ab L328_13S
B38: GpH7-A5/GpH7-B3 variant L328_14T/GpL16-k0 (antibody, human IgG1, kappa)
heavy 1: not shown
heavy 2: not shown
light: B1 light
notes: also called He Ab L328_14T
B39: GpH7-A5/GpH7-B3 variant N325_08L/GpL16-k0 (antibody, human IgG1, kappa)
heavy 1: not shown
heavy 2: not shown
light: B1 light
notes: also called He Ab N325_08L
B40: GpH7-A5/GpH7-B3 variant P331_02A/GpL16-k0 (antibody, human IgG1, kappa)
heavy 1: not shown
heavy 2: not shown
light: B1 light
notes: also called He Ab P331_02A
B41: GpH7-A5/GpH7-B3 variant S239_18N/GpL16-k0 (antibody, human IgG1, kappa)
heavy 1: not shown
heavy 2: not shown
light: B1 light
notes: also called He Ab S239_18N
B42: GpH7-A5/GpH7-B3 variant S239_10E/GpL16-k0 (antibody, human IgG1, kappa)
heavy 1: not shown
heavy 2: not shown
light: B1 light
notes: also called He Ab S239_10E
B43: GpH7-A5/GpH7-B3 variant L328_02A/GpL16-k0 (antibody, human IgG1, kappa)
heavy 1: not shown
heavy 2: not shown
light: B1 light
notes: also called He Ab L328_02A
B44: GpH7-A5/GpH7-B3 variant P331_15Y/GpL16-k0 (antibody, human IgG1, kappa)
heavy 1: not shown
heavy 2: not shown
light: B1 light
notes: also called He Ab P331_15Y
B45: GpH7-A5/GpH7-B3 variant N325_04F/GpL16-k0 (antibody, human IgG1, kappa)
heavy 1: not shown
heavy 2: not shown
light: B1 light
notes: also called He Ab N325_04F
B46: GpH7-A5/GpH7-B3 variant P238_03V/GpL16-k0 (antibody, human IgG1, kappa)
heavy 1: not shown
heavy 2: not shown
light: B1 light
notes: also called He Ab P238_03V
B47: GpH7-A5/GpH7-B3 variant P238_04F/GpL16-k0 (antibody, human IgG1, kappa)
heavy 1: not shown
heavy 2: not shown
light: B1 light
notes: also called He Ab P238_04F
B48: GpH7-A5/GpH7-B3 variant N325_20W/GpL16-k0 (antibody, human IgG1, kappa)
heavy 1: not shown
heavy 2: not shown
light: B1 light
notes: also called He Ab N325_20W
B49: GpH7-A5/GpH7-B3 variant N325_15Y/GpL16-k0 (antibody, human IgG1, kappa)
heavy 1: not shown
heavy 2: not shown
light: B1 light
notes: also called He Ab N325_15Y
B50: GpH7-A5/GpH7-B3 variant N325_03V/GpL16-k0 (antibody, human IgG1, kappa)
heavy 1: not shown
heavy 2: not shown
light: B1 light
notes: also called He Ab N325_03V
B51: GpH7-A5/GpH7-B3 variant S267_03V/GpL16-k0 (antibody, human IgG1, kappa)
heavy 1: not shown
heavy 2: not shown
light: B1 light
notes: also called He Ab S267_03V
B52: GpH7-A5/GpH7-B3 variant N325_14T/GpL16-k0 (antibody, human IgG1, kappa)
heavy 1: not shown
heavy 2: not shown
light: B1 light
notes: also called He Ab N325_14T
B53: GpH7-A5/GpH7-B3 variant P271_08L/GpL16-k0 (antibody, human IgG1, kappa)
heavy 1: not shown
heavy 2: not shown
light: B1 light
notes: also called He Ab P271_08L
B54: GpH7-A5/GpH7-B3 variant P238_09D/GpL16-k0 (antibody, human IgG1, kappa)
heavy 1: not shown
heavy 2: not shown
light: B1 light
notes: also called He Ab P238_09D
B55: GpH7-A5/GpH7-B3 variant N325_07I/GpL16-k0 (antibody, human IgG1, kappa)
heavy 1: not shown
heavy 2: not shown
light: B1 light
notes: also called He Ab N325_07I

biological target: T1, FcγRIIa R; test: SPR Biacore; vs GpH7-B3/GpL16-k0 =100
Experimental: Analysis of interaction between objective antibody and the FcγR was carried out using Biacore T100 (GE Healthcare). HBS-EP+ (GE Healthcare) was used as the running buffer, and the measurement temperature was set to 25° C. Chips produced by immobilizing the antigen peptide by the amine coupling method to a Series S Sencor Chip CM5 (GE Healthcare), or alternatively, chips produced by allowing preliminarily biotinylated antigen peptides to interact with and immobilize onto a Series S Sensor Chip SA (certified) (GE Healthcare) were used. Antibodies of interest were captured onto an antigen peptide-immobilized chip, and allowed to interact to each FcγR diluted with running buffer. To regenerate and repeatedly use the chip, the antibodies captured on the chip were washed off by reacting 10 mM glycine-HCl, pH 1.5.
The FcγR-binding activity of each antibody was assessed primarily using as an indicator the FcγR-binding activity and dissociation constant for FcγR.

Row | Ho/Con_2aR | Binder
1 | 124 % of control | B1
2 | 96.5 % of control | B2
3 | 99.1 % of control | B3
4 | 104 % of control | B4
5 | 101 % of control | B5
6 | 36.2 % of control | B6
7 | 44.4 % of control | B7
8 | 84 % of control | B8
9 | 106 % of control | B9
10 | 96.2 % of control | B10
11 | 97.1 % of control | B11
12 | 106 % of control | B12
13 | 99.9 % of control | B13
14 | 55.3 % of control | B14
15 | 113 % of control | B15
16 | 98.3 % of control | B16
17 | 87.5 % of control | B17
18 | 73.6 % of control | B18
19 | 92.4 % of control | B19
20 | 103 % of control | B20
21 | 56.6 % of control | B21
22 | 120 % of control | B22
23 | 73.1 % of control | B23
24 | 80 % of control | B24
25 | 22.5 % of control | B25

biological target: T1, FcγRIIa R; test: SPR Biacore; vs GpH7-A5/GpH7-B3/GpL16-k0 =100

Row | He/Con_2aR | Binder
26 | 139 % of control | B26
27 | 105 % of control | B27
28 | 122 % of control | B28
29 | 105 % of control | B29
30 | 119 % of control | B30
31 | 143 % of control | B31
32 | 110 % of control | B32
33 | 111 % of control | B33
34 | 114 % of control | B34
35 | 116 % of control | B35
36 | 107 % of control | B36
37 | 117 % of control | B37
38 | 119 % of control | B38
39 | 144 % of control | B39
40 | 106 % of control | B40
41 | 111 % of control | B41
42 | 135 % of control | B42
43 | 117 % of control | B43
44 | 112 % of control | B44
45 | 120 % of control | B45
46 | 120 % of control | B46
47 | 174 % of control | B47
48 | 134 % of control | B48
49 | 101 % of control | B49
50 | 108 % of control | B50
51 | 116 % of control | B51
52 | 105 % of control | B52
53 | 104 % of control | B53
54 | 148 % of control | B54
55 | 133 % of control | B55
